Positions of bridges follow the written chain, without caps; N, C: chain ends.
B1: P2-D (peptide)
peptide: Ac-AGWIECYHPDGICYHFGTGGGK-NH2
modifications: disulfide 6-13 (inferred)
B2: P6-D (peptide)
peptide: Ac-GDSRVCWEDSWGGEVCFRYDPGGGK-NH2
modifications: disulfide 6-16 (inferred)

Legend:
[1] = molecular target: T1, KDR (VEGFR-2), full-length receptor on cells (human, UniProt P35968 20-1356); assay: cell-based or functional assay
[2] = molecular target: T1, KDR (VEGFR-2), full-length receptor on …; assay: competition with 300 pM 125I-VEGF on KDR-transfected 293H cells; peptide 30 µM
Method: (§1) Cells were used 24 h after transfection, and to prepare the cells for the assay, they were washed 3 times with room temperature Ml 99 medium and placed in the refrigerator. […] Each dilution was added to three separate wells of mock and KDR transfected cells. Aflter incubating at 4° C. for 2 h, the plates were washed 5 times with cold binding buffer, gently blotted dry and checked under a microscope for cell loss. 100 μL of solubilizing solution (2% Triton X-100, 10% Glycerol, 0.1% BSA) was added to each well and the plates were incubated at room temperature for 30 minutes. The solubilizing solution in each well was mixed by pipeting up and down, and transferred to 1.2 mL tubes. Each well was washed twice with 100 μL of solubilizing solution and the washes were added to the corresponding 1.2 mL tube.

[3] = molecular target: T1, KDR (VEGFR-2), full-length receptor on …; assay: competition with 300 pM 125I-VEGF on KDR-transfected 293H cells; peptide 0.3 µM
Method: as §1

T1 sequence (P35968 20-1356): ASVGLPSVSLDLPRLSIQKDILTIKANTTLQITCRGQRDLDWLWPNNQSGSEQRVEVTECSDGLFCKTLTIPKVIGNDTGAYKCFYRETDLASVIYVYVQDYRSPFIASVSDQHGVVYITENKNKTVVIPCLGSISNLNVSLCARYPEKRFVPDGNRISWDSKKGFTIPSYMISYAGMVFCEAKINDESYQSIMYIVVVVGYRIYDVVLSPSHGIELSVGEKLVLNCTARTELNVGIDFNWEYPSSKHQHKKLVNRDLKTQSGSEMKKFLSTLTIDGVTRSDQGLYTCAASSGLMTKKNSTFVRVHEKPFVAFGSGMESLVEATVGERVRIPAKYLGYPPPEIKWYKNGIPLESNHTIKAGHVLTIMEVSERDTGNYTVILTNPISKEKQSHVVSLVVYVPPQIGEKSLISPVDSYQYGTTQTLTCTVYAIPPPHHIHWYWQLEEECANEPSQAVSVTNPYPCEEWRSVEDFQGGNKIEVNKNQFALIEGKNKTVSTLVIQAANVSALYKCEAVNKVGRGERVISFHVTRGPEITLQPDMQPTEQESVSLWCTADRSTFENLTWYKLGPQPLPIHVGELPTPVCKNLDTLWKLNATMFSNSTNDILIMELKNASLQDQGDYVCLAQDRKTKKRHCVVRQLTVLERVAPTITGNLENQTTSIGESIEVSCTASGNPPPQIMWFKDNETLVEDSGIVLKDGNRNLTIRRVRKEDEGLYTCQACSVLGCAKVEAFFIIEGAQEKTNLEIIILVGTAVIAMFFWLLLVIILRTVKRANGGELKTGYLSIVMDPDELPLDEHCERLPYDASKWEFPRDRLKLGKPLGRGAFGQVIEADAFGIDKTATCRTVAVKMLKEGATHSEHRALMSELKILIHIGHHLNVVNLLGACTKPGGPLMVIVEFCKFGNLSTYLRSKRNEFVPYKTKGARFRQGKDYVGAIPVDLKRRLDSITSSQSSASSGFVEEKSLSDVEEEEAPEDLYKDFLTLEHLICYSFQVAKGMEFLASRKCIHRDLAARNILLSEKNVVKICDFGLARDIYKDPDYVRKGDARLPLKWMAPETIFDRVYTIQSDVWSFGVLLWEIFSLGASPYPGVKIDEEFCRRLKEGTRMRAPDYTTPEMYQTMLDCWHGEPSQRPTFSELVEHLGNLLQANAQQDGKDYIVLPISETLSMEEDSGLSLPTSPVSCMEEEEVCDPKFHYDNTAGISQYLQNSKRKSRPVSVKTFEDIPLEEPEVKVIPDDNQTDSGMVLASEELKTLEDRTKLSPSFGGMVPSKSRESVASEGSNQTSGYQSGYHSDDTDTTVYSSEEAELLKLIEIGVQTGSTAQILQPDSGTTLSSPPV

Row | Binder | inhibition of VEGF-induced KDR phosphorylation [1] [% inhibition at 10 µM] | IC50, receptor activation assay [1] [nM] | % inhibition of 125I-labeled VEGF binding [2] [%] | % inhibition of 125I-labeled VEGF binding [3] [%]
1 | B1 | ≥ 50 |  |  | 
2 | B2 | ≥ 50 | 1000 | 96.3 | 52.3

Reference: patent US20040210041A1 (published 2004)
